Tests used:
[1] = system: HeLa Kyoto; experiment: thermal stability score vs G1/S (z-score of summed log2 fold changes over temperatures); higher = more thermally stable than in G1/S
[2] = system: HeLa Kyoto; experiment: solubility in G1/S (NP-40 vs SDS abundance) (log2 ratio); higher = more soluble; conditions: cell cycle stage: G1/S
[3] = system: HeLa Kyoto; experiment: solubility change mitosis vs G1/S (difference of NP-40 vs SDS log2 ratios) (log2 ratio difference); higher = more soluble in mitosis
[4] = system: HeLa Kyoto; experiment: melting temperature (median over replicates), in situ; higher = more thermally stable
[5] = cell cycle stage: early G1 (4.5 h after nocodazole release)
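For melting temperature (median over replicates), in situ in this document: HeLa Kyoto cells synchronized by double thymidine or nocodazole block, proteins quantified by TMT10plex mass spectrometry, three independent biological replicates.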
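For solubility change mitosis vs G1/S (difference of NP-40 vs SDS log2 ratios) in this document: synchronized HeLa Kyoto cells (double thymidine block for G1/S, nocodazole release for mitosis), protein amounts in NP-40 versus SDS lysates quantified by mass spectrometry, three biological replicates.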
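For solubility in G1/S (NP-40 vs SDS abundance) in this document: HeLa Kyoto cells arrested at G1/S by double thymidine block, proteins quantified by TMT10plex mass spectrometry in mild NP-40 versus SDS extracts, three biological replicates.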
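For thermal stability score vs G1/S (z-score of summed log2 fold changes over temperatures) in this document: synchronized HeLa Kyoto cells, proteins quantified by TMT10plex mass spectrometry, three biological replicates, mitosis taken 0.5 h after nocodazole release, G1/S directly after double thymidine block.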

Row | Substance | thermal stability score [1, 5] | thermal stability score ([1]; cell cycle stage: mitosis) | solubility in G1/S (log2) [2] | solubility change mitosis (log2) [3] | melting temperature ([4]; cell cycle stage: G1/S) [°C] | melting temperature ([4]; cell cycle stage: mitosis) [°C]
1 | MDALNRNQIGPGCQTQTMVQKGPLDLIETGKGLKVQTDKPHLVSLGSGRLSTAITLLPLEEGRTVIGSAARDISLQGPGLAPEHCYIENLRGTLTLYPCGNACTIDGLPVRQPTRLTQGCMLCLGQSTFLRFNHPAEAKWMKSMIPAGGRAPGPPYSPVPAESESLVNGNHTPQTATRGPSACASHSSLVSSIEKDLQEIMDSLVLEEPGAAGKKPAATSPLSPMANGGRYLLSPPTSPGAMSVGSSYENTSPAFSPLSSPASSGSCASHSPSGQEPGPSVPPLVPARSSSYHLALQPPQSRPSGARSESPRLSRKGGHERPPSPGLRGLLTDSPAATVLAEARRATESPRLGGQLPVVAISLSEYPASGALSQPTSIPGSPKFQPPVPAPRNKIGTLQDRPPSPFREPPGSERVLTTSPSRQLVGRTFSDGLATRTLQPPESPRLGRRGLDSMRELPPLSPSLSRRALSPLPTRTTPDPKLNREVAESPRPRRWAAHGASPEDFSLTLGARGRRTRSPSPTLGESLAPHKGSFSGRLSPAYSLGSLTGASPCQSPCVQRKLSSGDLRVPVTRERKNSITEISDNEDDLLEYHRRQRQERLREQEMERLERQRLETILNLCAEYSRADGGPEAGELPSIGEATAALALAGRRPSRGLAGASGRSSEEPGVATQRLWESMERSDEENLKEECSSTESTQQEHEDAPSTKLQGEVLALEEERAQVLGHVEQLKVRVKELEQQLQESAREAEMERALLQGEREAERALLQKEQKAVDQLQEKLVALETGIQKERDKEAEALETETKLFEDLEFQQLERESRVEEERELAGQGLLRSKAELLRSIAKRKERLAILDSQAGQIRAQAVQESERLARDKNASLQLLQKEKEKLTVLERRYHSLTGGRPFPKTTSTLKEMEKLLLPAVDLEQWYQELMAGLGTGPAAASPHSSPPPLPAKASRQLQVYRSKMDGEATSPLPRTRSGPLPSSSGSSSSSSQLSVATLGRSPSPKSALLTQNGTGSLPRNLAATLQDIETKRQLALQQKGQQVIEEQRRRLAELKQKAAAEAQCQWDALHGAAPFPAGPSGFPPLMHHSILHHLPAGRERGEEGEHAYDTLSLESSDSMETSISTGGNSACSPDNMSSASGLDMGKIEEMEKMLKEAHAEKNRLMESREREMELRRQALEEERRRREQVERRLQSESARRQQLVEKEVKMREKQFSQARPLTRYLPIRKEDFDLKTHIESSGHGVDTCLHVVLSSKVCRGYLVKMGGKIKSWKKRWFVFDRLKRTLSYYVDKHETKLKGVIYFQAIEEVYYDHLRSAAKKRFFRFTMVTESPNPALTFCVKTHDRLYYMVAPSAEAMRIWMDVIVTGAEGYTQFMN [PHLDB1] | 0.702 | 1.01 | 0.0569 | -0.13 | 50.8 | 51.1
2 | MDAPGALAQTAAPGPGRKELKIVIVGDGGCGKTSLLMVYSQGSFPEHYAPSVFEKYTASVTVGSKEVTLNLYDTAGQEDYDRLRPLSYQNTHLVLICYDVMNPTSYDNVLIKWFPEVTHFCRGIPMVLIGCKTDLRKDKEQLRKLRAAQLEPITYMQGLSACEQIRAALYLECSAKFRENVEDVFREAAKVALSALKKAQRQKKRRLCLLL [RHOF] | 0.493 | 0.369 | -0.0436 | -0.104 | 53.8 | 53
3 | MDAPKAGYAFEYLIETLNDSSHKKFFDVSKLGTKYDVLPYSIRVLLEAAVRNCDGFLMKKEDVMNILDWKTKQSNVEVPFFPARVLLQDFTGIPAMVDFAAMREAVKTLGGDPEKVHPACPTDLTVDHSLQIDFSKCAIQNAPNPGGGDLQKAGKLSPLKVQPKKLPCRGQTTCRGSCDSGELGRNSGTFSSQIENTPILCPFHLQPVPEPETVLKNQEVEFGRNRERLQFFKWSSRVFKNVAVIPPGTGMAHQINLEYLSRVVFEEKDLLFPDSVVGTDSHITMVNGLGILGWGVGGIETEAVMLGLPVSLTLPEVVGCELTGSSNPFVTSIDVVLGITKHLRQVGVAGKFVEFFGSGVSQLSIVDRTTIANMCPEYGAILSFFPVDNVTLKHLEHTGFSKAKLESMETYLKAVKLFRNDQNSSGEPEYSQVIQINLNSIVPSVSGPKRPQDRVAVTDMKSDFQACLNEKVGFKGFQIAAEKQKDIVSIHYEGSEYKLSHGSVVIAAVISCTNNCNPSVMLAAGLLAKKAVEAGLRVKPYIRTSLSPGSGMVTHYLSSSGVLPYLSKLGFEIVGYGCSICVGNTAPLSDAVLNAVKQGDLVTCGILSGNKNFEGRLCDCVRANYLASPPLVVAYAIAGTVNIDFQTEPLGTDPTGKNIYLHDIWPSREEVHRVEEEHVILSMFKALKDKIEMGNKRWNSLEAPDSVLFPWDLKSTYIRCPSFFDKLTKEPIALQAIENAHVLLYLGDSVTTDHISPAGSIARNSAAAKYLTNRGLTPREFNSYGARRGNDAVMTRGTFANIKLFNKFIGKPAPKTIHFPSGQTLDVFEAAELYQKEGIPLIILAGKKYGSGNSRDWAAKGPYLLGVKAVLAESYEKIHKDHLIGIGIAPLQFLPGENADSLGLSGRETFSLTFPEELSPGITLNIQTSTGKVFSVIASFEDDVEITLYKHGGLLNFVARKFS [IREB2] | -0.342 | -0.0931 | 0.000606 | 0.0731 | 50.6 | 49.8
4 | MDC1 | -1.53 | 1.05 | -0.295 | 0.434 | 51.2 | 52.1
5 | MDCGSVGGQRTQRLPGRQRLLFLPVGLSGRPGGSETSARRCLSALSDGLGALRPRAPAARGGVSRASPLLLLLLVPSPRLAAAAPRRQLGDWERSRLGYAAPPAGRSSAWRCSPGVAAAAGALPQYHGPAPALVSCRRELSLSAGSLQLERKRRDFTSSGSRKLYFDTHALVCLLEDNGFATQQAEIIVSALVKILEANMDIVYKDMVTKMQQEITFQQVMSQIANVKKDMIILEKSEFSALRAENEKIKLELHQLKQQVMDEVIKVRTDTKLDFNLEKSRVKELYSLNEKKLLELRTEIVALHAQQDRALTQTDRKIETEVAGLKTMLESHKLDNIKYLAGSIFTCLTVALGFYRLWI [MCUR1] | -0.0232 | -0.133 | 0.186 | -0.0249 |  | 52
6 | MDDIFTQCREGNAVAVRLWLDNTENDLNQGDDHGFSPLHWACREGRSAVVEMLIMRGARINVMNRGDDTPLHLAASHGHRDIVQKLLQYKADINAVNEHGNVPLHYACFWGQDQVAEDLVANGALVSICNKYGEMPVDKAKAPLRELLRERAEKMGQNLNRIPYKDTFWKGTTRTRPRNGTLNKHSGIDFKQLNFLTKLNENHSGELWKGRWQGNDIVVKVLKVRDWSTRKSRDFNEECPRLRIFSHPNVLPVLGACQSPPAPHPTLITHWMPYGSLYNVLHEGTNFVVDQSQAVKFALDMARGMAFLHTLEPLIPRHALNSRSVMIDEDMTARISMADVKFSFQCPGRMYAPAWVAPEALQKKPEDTNRRSADMWSFAVLLWELVTREVPFADLSNMEIGMKVALEGLRPTIPPGISPHVCKLMKICMNEDPAKRPKFDMIVPILEKMQDK [ILK] | 1.36 | 1.76 | 0.274 | -0.135 | 50.1 | 50
7 | MDDREDLVYQAKLAEQAERYDEMVESMKKVAGMDVELTVEERNLLSVAYKNVIGARRASWRIISSIEQKEENKGGEDKLKMIREYRQMVETELKLICCDILDVLDKHLIPAANTGESKVFYYKMKGDYHRYLAEFATGNDRKEAAENSLVAYKAASDIAMTELPPTHPIRLGLALNFSVFYYEILNSPDRACRLAKAAFDDAIAELDTLSEESYKDSTLIMQLLRDNLTLWTSDMQGDGEEQNKEALQDVEDENQ [YWHAE] | -1.18 | -2.71 | 0.336 | 0.181 | 55.3 | 55.8
8 | MDEAGSSASGGGFRPGVDSLDEPPNSRIFLVISKYTPESVLRERFSPFGDIQDIWVVRDKHTKESKGIAFVKFARSSQACRAMEEMHGQCLGPNDTKPIKVFIAQSRSSGSHRDVEDEELTRIFVMIPKSYTEEDLREKFKVYGDIEYCSIIKNKVTGESKGLGYVRYLKPSQAAQAIENCDRSFRAILAEPKNKASESSEQDYYSNMRQEALGHEPRVNMFPFVGEQQSEFSSFDKNDSRGQEAISKRLSVVSRVPFTEEQLFSIFDIVPGLEYCEVQRDPYSNYGHGVVQYFNVASAIYAKYKLHGFQYPPGNRIGVSFIDDGSNATDLLRKMATQMVAAQLASMVWNNPSQQQFMQFGGSSGSQLPQIQTDVVLPSCKKKAPAETPVKERLFIVFNPHPLPLDVLEDIFCRFGNLIEVYLVSGKNVGYAKYADRISANDAIATLHGKILNGVRLKVMLADSPREESNKRQRTY [RBM45] | 0.337 | 0.251 | 0.000113 | 0.448 | 48.4 | 50
9 | MDELAGGGGGGPGMAAPPRQQQGPGGNLGLSPGGNGAAGGGGPPASEGAGPAAGPELSRPQQYTIPGILHYIQHEWARFEMERAHWEVERAELQARIAFLQGERKGQENLKKDLVRRIKMLEYALKQERAKYHKLKYGTELNQGDLKMPTFESEETKDTEAPTAPQNSQLTWKQGRQLLRQYLQEVGYTDTILDVRSQRVRSLLGLSNSEPNGSVETKNLEQILNGGESPKQKGQEIKRSSGDVLETFNFLENADDSDEDEENDMIEGIPEGKDKHRMNKHKIGNEGLAADLTDDPDTEEALKEFDFLVTAEDGEGAGEARSSGDGTEWDKDDLSPTAEVWDVDQGLISKLKEQYKKERKGKKGVKRANRTKLYDMIADLGDDELPHIPSGIINQSRSASTRMTDHEGARAEEAEPITFPSGGGKSFIMGSDDVLLSVLGLGDLADLTVTNDADYSYDLPANKDAFRKTWNPKYTLRSHFDGVRALAFHPVEPVLVTASEDHTLKLWNLQKTVPAKKSASLDVEPIYTFRAHIGPVLSLAISSNGEQCFSGGIDATIQWWNMPSPSVDPYDTYEPNVLAGTLVGHTDAVWGLAYSGIKNQLLSCSADGTVRLWNPQEKLPCICTYNGDKKHGIPTSVDFIGCDPAHMVTSFNTGSAVIYDLETSQSLVILSSQVDSGLQSNNHINRVVSHPTLPVTITAHEDRHIKFFDNKTGKMIHSMVAHLDAVTSLAVDPNGIYLMSGSHDCSIRLWNLDSKTCVQEITAHRKKLDESIYDVAFHSSKAYIASAGADALAKVFV [STRN3] | -0.00707 | -0.722 | -0.0799 | -0.0757 | 52.1 | 52.4
10 | MDEQAGPGVFFSNNHPGAGGAKGLGPLAEAAAAGDGAAAAGAARAQYSLPGILHFLQHEWARFEVERAQWEVERAELQAQIAFLQGERKGQENLKKDLVRRIKMLEYALKQERAKYHKLKYGTELNQGDMKPPSYDSDEGNETEVQPQQNSQLMWKQGRQLLRQYLQEVGYTDTILDVKSKRVRALLGFSSDVTDREDDKNQDSVVNGTEAEVKETAMIAKSELTDSASVLDNFKFLESAAADFSDEDEDDDVDGREKSVIDTSTIVRKKALPDSGEDRDTKEALKEFDFLVTSEEGDNESRSAGDGTDWEKEDQCLMPEAWNVDQGVITKLKEQYKKERKGKKGVKRPNRSKLQDMLANLRDVDELPSLQPSVGSPSRPSSSRLPEHEINRADEVEALTFPPSSGKSFIMGADEALESELGLGELAGLTVANEADSLTYDIANNKDALRKTWNPKFTLRSHFDGIRALAFHPIEPVLITASEDHTLKMWNLQKTAPAKKSTSLDVEPIYTFRAHKGPVLCVVMSSNGEQCYSGGTDGLIQGWNTTNPNIDPYDSYDPSVLRGPLLGHTDAVWGLAYSAAHQRLLSCSADGTLRLWNTTEVAPALSVFNDTKELGIPASVDLVSSDPSHMVASFSKGYTSIFNMETQQRILTLESNVDTTANSSCQINRVISHPTLPISITAHEDRHIKFYDNNTGKLIHSMVAHLEAVTSLAVDPNGLYLMSGSHDCSIRLWNLESKTCIQEFTAHRKKFEESIHDVAFHPSKCYIASAGADALAKVFV [STRN] | 0.0936 | -0.463 | 0.0488 | -0.134 | 52.4 | 52.3
11 | MDGKQGGMDGSKPAGPRDFPGIRLLSNPLMGDAVSDWSPMHEAAIHGHQLSLRNLISQGWAVNIITADHVSPLHEACLGGHLSCVKILLKHGAQVNGVTADWHTPLFNACVSGSWDCVNLLLQHGASVQPESDLASPIHEAARRGHVECVNSLIAYGGNIDHKISHLGTPLYLACENQQRACVKKLLESGADVNQGKGQDSPLHAVARTASEELACLLMDFGADTQAKNAEGKRPVELVPPESPLAQLFLEREGPPSLMQLCRLRIRKCFGIQQHHKITKLVLPEDLKQFLLHL [ASB9] | -0.645 | -1.33 | 0.762 | -0.182 | 55 | 54.2

Source: the supplement of paper PMC5998384
